Measurements taken from the nanobody polyreactivity screen of Harvey et al. (2022).

Assay: yeast display, Sf9 membrane polyspecificity reagent, FACS + sequencing; frameworks hold sequencing errors
Outline: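 Galactose-induced (36–48 hours) yeast carrying a synthetic nanobody display library were exposed to 10% biotinylated, detergent-solubilized Sf9 membrane reagent at 4 °C for 1 hour. FACS followed streptavidin microbead enrichment, using low and high (top ~1%) gates for expression (anti-HA) and reagent binding (streptavidin). Colony PCR, MiSeq 2 × 250 sequencing and CDR-length filtering followed. Labels for polyreactivity reflect the gate of origin.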

Row | Sequence | polyreactivity (PSR sort gate)
1 | QVQLVESGGGFVQAGGSLRLSCAASGRTYTLNAMRWYRQAPGKERELVAAITWGAGSTYYADSVKGRFTISRDNAKNTVYLQMNSLKPEDTAVYYCAARFHGAYYRYRSPSMYYWGQGTQVTVSS | high polyreactivity
2 | QVQLVESGGGFVQAGGSLRLSCAASGSICAGYAMGWYRQAPGKERVLVAGITIGGSTNYADSVKGRFTISRDNAKNTVYLQMNSLKPEDTAVYYCAARRVQSVYRIPRRYHSYGYWGQGTQVTVSS | high polyreactivity
3 | QVQLVESGGGFVQAGGSLRLSCAASGSIFVTYAKGWYRQAPGKERDLVAAIKYSGGSTYYADSVKGRFTISRDYAKNTVYLQMNSLKPEDTAVYYCAADERVDQGWIRMDYWGQGTQVTVSS | low polyreactivity
4 | QVQLVESGGGFVQAGGSLRLSCAASGSTFGPYAMGWSSQAPGKDRELVAGISSGGSTYYADSVKGRFTISRDNAKNTVYLQMNSLKPEDTAVYYCATRYLYRGYSYFAYDYWGQGTQVTVSS | low polyreactivity
5 | QVQLVESGGGFVQAGGSLRLSCAAYGSISVGYTMGWYIQAPGKEREFVAVITGTGGRTRYADSVKGRFTISRDNAKNTVYLQMNSLKPEDTAVYYCAAKIRWRGALYDYWGQGTQVTVSS | high polyreactivity
6 | QVQLVESGGGIDQAGGSLRLSCAASGNIFDYYAMGWYRQAPGKEREFVAAISWSGARTYYADSVKGRFTISRDNAKNTVYLQMNRLKPEDTAVYYCAGGQSWRKNDYRYDYWGQGTQVTVSS | high polyreactivity
7 | QVQLVESGGGIFQAGGSLRLSCAASGSTFDYNAMGWYRQAPGKERELVADITGSGASTSYADSVKGRFTISRDNEKNTVYLQMKILKPEDTAVYYCNADDSYFYELYGYWGQGTQVTVSS | low polyreactivity
8 | QVQLVESGGGIFQEGGSLRLSCAASGLIFRSYDMGWYRQAPGKERELVAAITDLFWSTYYADSVKGRFTISRDNAKNTVYLQMYSLKPEDTAVYYCARDDWVYTNVEMDYWGQVTQVTVSS | high polyreactivity
9 | QVQLVESGGGILQAGGSLRLSCAASGLTFPWYAMGWYRLAPGKERELVAAITHSDGNTYADSVKGRFTISRDKAKNTVYLQMNSLKPEDTAVYYCATDTRSQAYYYWGQGTQVTVSS | low polyreactivity
10 | QVQLVESGGGIVLAGGSLRLSCAASGSIYYANAMGWYRQAPGKERELVAVISSGGSTYYADSVNGRFTISRDNAKNTVYLHMNSLKPEDTAVYYCAAETYYYVLPHWYKYKYGYWGQGTQVTVSS | low polyreactivity
11 | QVQLVESGGGIVQAGCSLRIICAASGYTFGYYAMGSYRQAPGNERQFVAAITIDARTTYADSVKGRFTISRDKAKKTFYLQINSLKADDTAFYYCARGYFPYGYPWRWGYDRFDYWGQGTLVTVSS | low polyreactivity
12 | QVQLVESGGGIVQAGGSLGLSCGASGRTCRKFSMGWYSQAPGNAWEVVAAISSRGGSTYYADSVKGRFTSSRDNAKNTVYLQMNSLIPEDTAVYYCATDSIPPSSEGDYWGQGTQGTVSS | high polyreactivity
13 | QVQLVESGGGIVQAGGSLRISSSASGRIITAYAMGWYRQAPGKERELVAAITRSTTYYADSVKGRFTISRDNAKFSVDLQLHSLKPDDTAVFYCAADYRGTWYGYDYWGQGTHVTVSS | high polyreactivity
14 | QVQLVESGGGIVQAGGSLRLICAASGFIFEFNVMGWYRQSPGKERQLVAAISRSGGSTYYADSVKGRFTISRDNAKNTVYLQMISLKPEDSAVYYCAARSYRSGTHGYNYWGQGTQVTVSS | high polyreactivity
15 | QVQLVESGGGIVQAGGSLRLICAASGFTFSYYAMAWYRQAPGKEREFVAAITRSGSTYYADSVKGRFTISRENAKNTVYLQMISLKPEDTSVYYCAARFLYRYDYWGQGTQVTVSS | high polyreactivity
16 | QVQLVESGGGIVQAGGSLRLICAASGFTFWDYAMGWHRQAPGKERELVAAISWSGGSTYYADSVKGRFTISRDNAKNTVYLQMNSLKPEDTAVYYCNAVHYSRYVHPGHSMYYWGQGTQVTVSS | low polyreactivity
17 | QVQLVESGGGIVQAGGSLRLICAASGITFTVYAMGWDRTAPWKARELVAASCSSGSTTYADSVKGRFTFSRDNAKNTVYLQMNSVKPQDPAVYYCAAEGYYRFSTAYFRKKYEYWGQGTQVTVSS | low polyreactivity
18 | QVQLVESGGGIVQAGGSLRLICAASGRTFKYYAMGWYRQAPGKERELVAAIRSRTGSTYYADSVKGRFTISRDNAKNTVYLQMNSLKPVDTAVYYCAAQPGSYYGPRWYYDDDYWGQGTQVTVSS | high polyreactivity
19 | QVQLVESGGGIVQAGGSLRLICAASGSIFNGYALGWYRQAPGKERDLVAAISWRGGTTYYADSVKGRFSISRDTAKNTVYLQMNSLKPEDTAVYYCAARHFARMGYWGQGTQVTVSS | high polyreactivity
20 | QVQLVESGGGIVQAGGSLRLISAASGIIIDYYAMGWYRQAPGKERELVAAITSGGSTSYADSVKGRFTISRDNAKNTVYLQMNSLKAEDTAVYYCNTEPSGYESGYWGQGTLVTVSS | low polyreactivity
21 | QVQLVESGGGIVQAGGSLRLRCAASGLIFAYNAMGGDRQAPGKEREFVAAINSGGDSTYYADCVKGRFTISRDNAKNTVYLQMNSLKPEDTAVYYCAAVSGNKRYYYWGHGTQVTVSS | low polyreactivity
22 | QVQLVESGGGIVQAGGSLRLSCAASARIFGYNAMGWYRQAPGKERELVADITGSGGSTYYADSVKGRFTISRDNAKNTVYLQMNSLKPEDTAVYYCATPYAVYHVEYGYWGQGTQVTVSS | low polyreactivity

Row | Sequence | polyreactivity (PSR sort gate)
23 | QVQLVESGGGIVQAGGSLRLSCAASGFIFQRYVMGWYRQEPGKERQLVAAISSGGSTNYADSVKGRFTISRDNAKNTVYLQMNSLKAEDTAVYYFAADGFYYRNWGRFRYYYWGLGTQVTVSS | low polyreactivity
24 | QVQLVESGGGIVQAGGSLRLSCAASGFIIGYNAKGWYRQAPGKETELVAAITSRGVRTYYADCVKWRFTISRDNAKNTVYLQMNSLKPEDTAVYYCAKASRGYRSPYGSIGYYYWGQGTQVTVSS | high polyreactivity
25 | QVQLVESGGGIVQAGGSLRLSCAASGFIISPNAMGWYRHAPGKEREFVAAIRYSGTSTSYADSVKGRFTISRDNGKNTVYLQMNSLKPEDTAVYYCAAQYRQRTGMYYWGQGSQVTVSS | high polyreactivity
26 | QVQLVESGGGIVQAGGSLRLSCAASGFTFDIYAMGWYRQAPGTERELVATISFTGDTTSYADSVKGRFTISRDNAKNTVYLQMNSLKPEDTAVYYCAADGSYPLSVGRENLHYAEFDYWGQGTQVTVSS | low polyreactivity
27 | QVQLVESGGGIVQAGGSLRLSCAASGFTFDYYAMGWYRQAPGKERELVAAISWRGTTTYYADSVKGRFTISRDNAKNTVYLQMNSLKPEDTAVYYCAADSLFGHYDYWGQGTQVTVSS | low polyreactivity
28 | QVQLVESGGGIVQAGGSLRLSCAASGFTFKYYARGWYRQAPGKERELVAAIRGSGAGTYYADSVKGRFTISRDNAKNTGYLQMNSLKPEDTAVYYCNKRWTYKWDDYWGQGTQVTVSS | high polyreactivity
29 | QVQLVESGGGIVQAGGSLRLSCAASGFTFSSYAMGWYRQAPGKERELVAAISSGGGSTYYADSVKGRFTISRDNAKNTVYLQMNSLKPEDTAVYYCAASHYYSNGYWGQGTQVTVSS | high polyreactivity
30 | QVQLVESGGGIVQAGGSLRLSCAASGFTFWVYAMGWSRQAPGNEWQLVAAISARGGSTYYADSVKVRFTISRDNAKNTVYLQMNSLKPVDTEVYYCAAEPSGKRSKFYYWGHGTQVTVSS | high polyreactivity
31 | QVQLVESGGGIVQAGGSLRLSCAASGFTIWKYAMGLYRQAPGKERELVAAISVSGGRTNYADSVKGRFTISGDNAKNTVYLQMNSLKPEDTAVYYCIATPWRPYVGGEYWGQGTHVTVSS | high polyreactivity
32 | QVQLVESGGGIVQAGGSLRLSCAASGGTFQRNAMGWYIQAPGKEREFVATITRGGGSTYYADSVKGRFTISRDNAKNTVYFQMNSLKPEDSAVYYCNANTSYYQRYNYWGQGTQVTVSS | high polyreactivity
33 | QVQLVESGGGIVQAGGSLRLSCAASGGTFRVNAMVWYRQAPGKEREFVAAISGSGSSTYYADSVKGRFTISRDNAKNTVYLQMNSLKPEDTAVYYCAARSGVGGDNDYWGQGTQVTVSS | low polyreactivity
34 | QVQLVESGGGIVQAGGSLRLSCAASGIIFDINSMGWYRQAPGKERELVAAITTSVDSTYYAHSVKGRFTISRDNAKNTVYLQMYSLQPEDTAVYYCSVSFVQFTQYDYWGQGTQVTVSS | low polyreactivity
35 | QVQLVESGGGIVQAGGSLRLSCAASGIIFDVYAMGLYRQAPGTERELVAAISKRGGRTYYADSVKWRFTISRDNAKNTVYLQMNSLKPEDTAVYYCAADGQYKHFDYWGQGTQVTVSS | high polyreactivity
36 | QVQLVESGGGIVQAGGSLRLSCAASGIIFRFYAMGWYRQAPGKERELVARIRSRGGSTYYADSVKGRFTISRDNAKNTVYLQMNSLKPEDTAVYYCAAGAGYPYYWGQGTQVTVSS | high polyreactivity
37 | QVQLVESGGGIVQAGGSLRLSCAASGIIFSANAMGWYRQAPGKERELVAAISRAGSTNYADYVKGRFTISRDNAKNTVYLQMNSLKPEDTAVYYCAAGGGFYFIWTMDYWGQGTQVTVSS | low polyreactivity
38 | QVQLVESGGGIVQAGGSLRLSCAASGIIIAVYAMGWYRQAPGKERELVAAISWSSGNTYYADSVKGRFTISRENAKNTVYLQMNSLNPEDTAVYYCAAVSRYKYDYWGQGTQVTVSS | high polyreactivity
39 | QVQLVESGGGIVQAGGSLRLSCAASGITFQRNALGWYRQAPGKERELVAAISKSGGSTYYADSVKARFTISRDNAKNTVYLQMNSLKPEDTAVYDCAAPVWRYYRGKTFDFWGQGTQVTVSS | high polyreactivity
40 | QVQLVESGGGIVQAGGSLRLSCAASGLIFYNYAMGWYRQAPGKERELVAAITSGGSTYYADSVKGRFTISRDNAKNTVYLQMNSLKPEDTAVYYCAADLTYTVPFDYWGQGTQVTVSS | high polyreactivity
41 | QVQLVESGGGIVQAGGSLRLSCAASGLIFYTYAMGWYRQAPGKERELVATISWDVDSTNYADSVKGRFTISRDNAKNTVYLQMNSLKPEDTAGYYCAVDSTFDSYWYWVDYYEYGYWGQGTQVTVSS | high polyreactivity
42 | QVQLVESGGGIVQAGGSLRLSCAASGLILANNAMGRYRQAPGKETELVATISSSGGRTSYADSVKGRFTISRDNAKNTVYLQMNSLKPEDTAVYYCAKYCGRYPHGRSWYDYWGQGTQVTVSS | high polyreactivity
43 | QVQLVESGGGIVQAGGSLRLSCAASGLNFYWYAMGWYRQAPGKERELVAAITWSGGITYYADSVKGRFTISRDNANNTVYLQMNSLNPEDTAVYYCADDDDYGDVTYDYWGHGTQVTVSS | low polyreactivity
